Patent US20230391885A1 (INTEGRAL MOLECULAR, published 2023)
Changes are numbered by the printed parent chain. Where two headings read alike, the source gives them in different places.

How the values were obtained:
Claudin 18.2 (human) [1] = molecular target: T1, Claudin 18.2 (human) (human); experiment: biolayer interferometry (Octet Red), biotinylated hsCLDN18.2-VLPs on streptavidin tips, antibody in solution, 1:1 model; hsCLDN18.2 on biotinylated VLPs on the biosensor tip
T1 construct: Multispanning membrane protein; also called hsCLDN18.2
Method: All biosensor studies were performed in PBS buffer supplemented with 1 mg/mL bovine serum albumin (BSA; PBS-B) at 25° C. using a ForteBio Octet Red biosensor system (Pall-ForteBio, Inc., Menlo Park, CA). […] Antibody binding and dissociation kinetics were determined for serial dilutions of antibody in PBS-B starting at 20 μg/mL. Antibody association was measured for 5 minutes followed by dissociation for up to 45 minutes in buffer. Non-specific binding was assessed using sensor tips with VLPs containing only endogenous proteins (Null VLPs). Data analysis was performed using the Octet data analysis program (v8.1; ForteBio) using a standard 1:1 binding model.

Claudin 18.2 (human) [2] = molecular target: T1, Claudin 18.2 (human); experiment: flow cytometry, antibody titration on HEK-293T cells transfected with hsCLDN18.2, APC-labelled anti-human secondary
From the text: Fluorescence was detected using an Intellicyt high-throughput flow cytometer (HTFC; Intellicyt, Albuquerque, NM).

Claudin 18.2 (human) [3] = molecular target: T1, Claudin 18.2 (human); experiment: cell binding (MFI), titration on cells with native Claudin 18.2; cell type and species not stated for this figure
[4] = molecular target: T2, Claudin 18.2 (cynomolgus) (cynomolgus); experiment: flow cytometry, antibody titration on HEK-293T cells transfected with cynomolgus CLDN18.2
T2 construct: Expressed on transfected HEK-293T cells; also called cynomolgus CLDN18.2
T2 chain: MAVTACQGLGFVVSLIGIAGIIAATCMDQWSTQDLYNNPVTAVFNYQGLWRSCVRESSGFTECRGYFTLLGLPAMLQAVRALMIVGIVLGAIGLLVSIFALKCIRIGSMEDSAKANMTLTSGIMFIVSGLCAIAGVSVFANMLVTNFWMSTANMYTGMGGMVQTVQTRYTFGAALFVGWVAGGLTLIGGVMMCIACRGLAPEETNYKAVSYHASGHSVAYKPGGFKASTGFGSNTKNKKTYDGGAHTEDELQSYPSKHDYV
From the text: (§1) Fluorescence was detected using an Intellicyt high-throughput flow cytometer (HTFC; Intellicyt, Albuquerque, NM).”).

Claudin 18.2 (human) [5] = molecular target: T1, Claudin 18.2 (human); experiment: flow cytometry, antibody titration on HEK-293T cells transfected with human CLDN18.2
From the text: as §1

Claudin 18.2 (mouse) [6] = molecular target: T3, Claudin 18.2 (mouse) (mouse, UniProt P56857 10-264); experiment: flow cytometry, antibody titration on HEK-293T cells transfected with mouse CLDN18.2
T3 construct: Expressed on transfected HEK-293T cells; also called mouse CLDN18.2
T3 chain: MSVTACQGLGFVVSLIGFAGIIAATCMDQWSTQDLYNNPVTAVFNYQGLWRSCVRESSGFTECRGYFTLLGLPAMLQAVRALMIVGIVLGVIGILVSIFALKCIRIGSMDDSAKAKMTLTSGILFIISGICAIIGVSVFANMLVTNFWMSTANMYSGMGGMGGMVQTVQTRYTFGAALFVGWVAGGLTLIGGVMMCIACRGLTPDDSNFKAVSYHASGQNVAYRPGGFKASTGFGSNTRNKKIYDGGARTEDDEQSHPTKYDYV
From the text: as §1

Claudin 18.2 (human) [7] = molecular target: T1, Claudin 18.2 (human); experiment: cell binding (MFI), titration on cells with native Claudin 18.2; cell type and species not stated for this figure; remark: listed apart in the source
[8] = molecular target: T2, Claudin 18.2 (cynomolgus); experiment: flow cytometry, antibody titration on HEK-293T cells transfected with cynomolgus CLDN18.2
From the text: as §1

Claudin 18.2 (mouse) [9] = molecular target: T3, Claudin 18.2 (mouse); experiment: flow cytometry, antibody titration on HEK-293T cells transfected with mouse CLDN18.2
From the text: as §1

Claudin 18.2 (mouse) [10] = molecular target: T3, Claudin 18.2 (mouse); experiment: as above
From the text: as §1

Claudin 18.2 (human) [11] = molecular target: T1, Claudin 18.2 (human); experiment: flow cytometry, antibody titration on HEK-293T cells transfected with human CLDN18.2; remark: listed apart in the source
From the text: as §1

Claudin 18.2 (human) [12] = molecular target: T1, Claudin 18.2 (human); experiment: cell binding (MFI), titration on cells with native Claudin 18.2; cell type and species not stated for this figure; remark: listed apart in the source
[13] = molecular target: T2, Claudin 18.2 (cynomolgus); experiment: flow cytometry, antibody titration on HEK-293T cells transfected with cynomolgus CLDN18.2
From the text: as §1

Claudin 18.2 (human) [14] = molecular target: T1, Claudin 18.2 (human); experiment: biolayer interferometry (Octet Red), biotinylated hsCLDN18.2-VLPs on streptavidin tips, antibody in solution, 1:1 model

B1: MAb1 (IM-44-09B03-1H1B) (antibody, V domains shown)
VH: EVQLLESGGGLVQPGGSLRLSCAASGFTFSSYGMGWVRQAPGKGLEWVAAITRDSSTNYGAAVKGRATISRDNSKNTLYLQMNSLRAEDTAVYYCAKDASNGYCWYTGRGSYSCGAHHIDAWGQGTLVTVSS
VL: SYELTQPPSVSVSPGQTARITCSGGYNGHYGWYQQKPGQAPVTVIYSNNQRPSGIPERFSGSSSGTTVTLTISGVQAEDEADYYCGGYDSSAGIFGGGTKLTVL
notes: Humanized antibody derived from a chicken scFv; tested as 'purified IgG' (bivalent); The general methods say candidate scFv were converted to human IgG1-Fc (scFv-Fc) format; also called IM-44-09B03-1HB; IM-44-09B03-1HIB
Which results are given for B1?
Kd (Claudin 18.2 (human) [1]): 0.1 nM; EC50 (read off the curve) (Claudin 18.2 (human) [2]): ~5 nM; EC50 (read off the curve) (Claudin 18.2 (human) [3]): ~0.8 nM; EC50 (read off the curve) [4]: ~5 nM; EC50 (read off the curve) (Claudin 18.2 (human) [5]): ~4 nM; EC50 (read off the curve) (Claudin 18.2 (mouse) [6]): ~4 nM

B2: MAb3 (IM-44-05H06-1HD) (antibody, V domains shown)
VH: EVQLLESGGGLVQPGGSLRLSCAASGFTFRSYAMMWVRQAPGKGLEWVGEISSTGGSTYYGSAVKGRATISRDNSKNTLYLQMNSLRAEDTAVYYCAKSTYGATWKSADSIDAWGQGTLVTVSS
VL: B1 VL with T43L
notes: Humanized antibody derived from a chicken scFv; tested as 'purified IgG' (bivalent); The general methods say candidate scFv were converted to human IgG1-Fc (scFv-Fc) format
For B2, which Kd (Claudin 18.2 (human) [1]) is on record?
The Kd was 1.2 nM.

What about the “EC50 (read off the curve)” value (Claudin 18.2 (human) [7]) of the same binder?
The value was roughly 3 nM.

What about the “EC50 (read off the curve)” value [8] of the same binder?
The value was roughly 9 nM.

And the “EC50 (read off the curve)” value (Claudin 18.2 (mouse) [9])?
Its value is roughly 9 nM.

B3: monovalent form of MAb1 (other)
VH: B1 VH
VL: B1 VL
notes: also called MAb1 monovalent; monomeric MAb1
B3 was tested. Which “EC50 (read off the curve)” value (Claudin 18.2 (human) [3]) did it give?
Its value is roughly 3 nM.

B4: MAb2 (IM-44-01E10-1HA) (antibody, V domains shown)
VH: EVQLLESGGGLVQPGGSLRLSCAASGFTFSSYGMSWVRQAPGKGLEWVAGIGSSGSDTWYADSVKGRFTISRDNSKNTLYLQMNSLRAEDTAVYYCAKDATNGYCWYTGRGSYSCGAHHIDAWGQGTLVTVSS
VL: SYELTQPPSVSVSPGQTARITCSGGSGSYGYYGWYQQKPGQAPVTVIYGTNKRPSGIPERFSGSSSGTTVTLTISGVQAEDEADYYCGGYDSSAGIFGGGTKLTVL
notes: as for B2
Which results are given for B4?
Kd (Claudin 18.2 (human) [1]): 0.3 nM; EC50 (read off the curve) (Claudin 18.2 (mouse) [10]): ~6 nM; EC50 (read off the curve) (Claudin 18.2 (human) [11]): ~6 nM; EC50 (read off the curve) (Claudin 18.2 (human) [2]): ~4 nM; EC50 (read off the curve) (Claudin 18.2 (human) [12]): ~4 nM; EC50 (read off the curve) [13]: ~4 nM

B5: monovalent form of MAb2 (other)
VH: B4 VH
VL: B4 VL
notes: also called MAb2 monovalent; monomeric MAb2
B5 was tested. Which “EC50 (read off the curve)” value (Claudin 18.2 (human) [12]) did it give?
Its value is roughly 10 nM.

B6: zolbetuximab (antibody, V domains shown)
VH: QVQLQQPGAELVRPGASVKLSCKASGYTFTSYWINWVKQRPGQGLEWIGNIYPSDSYTNYNQKFKDKATLTVDKSSSTAYMQLSSPTSEDSAVYYCTRSWRGNSFDYWGQGTTLTVSS
VL: DIVMTQSPSSLTVTAGEKVTMSCKSSQSLLNSGNQKNYLTWYQQKPGQPPKLLIYWASTRESGVPDRFTGSGSGTDFTLTISSVQAEDLAVYYCQNDYSYPFTFGSGTKLEIK
How did the Kd (Claudin 18.2 (human) [14]) turn out when B6 was run?
The Kd was 0.3 nM.
